Measurements published in patent US20130022605A1 (published 2013).

T1: human TNFR1 on HeLa cells (human, UniProt P19438 30-455)
T1 sequence (looked up): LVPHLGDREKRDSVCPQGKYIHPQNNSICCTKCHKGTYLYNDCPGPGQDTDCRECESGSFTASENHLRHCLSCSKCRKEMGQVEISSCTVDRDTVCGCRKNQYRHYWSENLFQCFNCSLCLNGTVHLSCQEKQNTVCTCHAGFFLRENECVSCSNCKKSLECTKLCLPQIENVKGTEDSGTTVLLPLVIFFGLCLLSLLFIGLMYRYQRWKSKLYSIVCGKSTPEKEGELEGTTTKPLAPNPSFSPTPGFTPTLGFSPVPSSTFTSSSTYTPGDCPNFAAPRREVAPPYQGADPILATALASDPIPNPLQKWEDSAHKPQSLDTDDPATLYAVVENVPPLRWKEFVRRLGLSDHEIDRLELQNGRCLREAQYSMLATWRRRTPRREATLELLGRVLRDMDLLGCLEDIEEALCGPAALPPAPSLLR

T2: TNF receptor 1 Fc fusion protein (R&D Systems) (human, UniProt P19438 30-211, limits assumed)
T2 construct: bought; also called recombinant TNF receptor 1 (p55); TNFR1-Fc; not shown: Fc part of the bought fusion protein; not described
T2 sequence: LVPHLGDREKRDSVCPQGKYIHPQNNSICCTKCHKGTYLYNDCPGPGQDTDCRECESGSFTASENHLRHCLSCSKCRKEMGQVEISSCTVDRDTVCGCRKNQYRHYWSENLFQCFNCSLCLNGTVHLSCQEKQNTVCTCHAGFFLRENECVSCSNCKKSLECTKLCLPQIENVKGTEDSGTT

T3: mouse TNFR1 on L929 cells (mouse, UniProt P25118 30-454)
T3 sequence (looked up): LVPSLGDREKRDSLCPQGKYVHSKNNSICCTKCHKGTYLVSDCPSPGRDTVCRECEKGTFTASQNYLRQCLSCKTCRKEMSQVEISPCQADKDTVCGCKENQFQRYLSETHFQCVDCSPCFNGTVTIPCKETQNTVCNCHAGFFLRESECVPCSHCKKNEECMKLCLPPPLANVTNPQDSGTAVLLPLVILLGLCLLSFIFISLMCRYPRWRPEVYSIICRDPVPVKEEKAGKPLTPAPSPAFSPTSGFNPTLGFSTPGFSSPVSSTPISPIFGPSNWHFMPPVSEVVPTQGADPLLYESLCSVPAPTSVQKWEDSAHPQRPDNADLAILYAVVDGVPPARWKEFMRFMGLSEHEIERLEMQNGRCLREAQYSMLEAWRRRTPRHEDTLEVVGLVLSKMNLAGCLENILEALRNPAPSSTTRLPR


Legend:
[1] = biological target: T1, human TNFR1 on HeLa cells; assay: cell-based or functional assay
[2] = biological target: T2, TNF receptor 1 Fc fusion protein (R&D …); assay: receptor binding assay
[3] = biological target: T3, mouse TNFR1 on L929 cells; assay: cell-based or functional assay

Row | HeLa IL-8 Cell Assay, Activity (IC50) [1] [µM] | IC50 [2] [µM] | L929 Cell Assay, Activity (IC50) [3] [µM] | Binder
1 | 0.3 | 0.3 | – | TAR2h-29 (other, anti-human TNFR1 dAb) EVQLLESGGGLVQPGGSLRLSCAASGFTFATYNMGWVRQAPGKGLEWVSSIAWLGSETYYADSVKGRFTISRDNSKNTLYLQMNSLRAEDTAVYYCAKHCKAECTGDLFDYWGQGTLVTVSS
2 | 0.3 | – | – | TAR2h-13 (other) EVQLLESGGGLVQPGGSLRLSCAASGFTFPADEMYWVRQAPGKGLEWVSSIGWPGGATYYADSVKGRFTISRDNSKNTLYLQMNSLRAEDTAVYYCAKYGRNFDYWGQGTLVTVSS
3 | 0.4 | – | – | TAR2h-18 (other) EVQLLESGGGLVQPGGSLRLSCAASGFTFADYNMTWVRQAPGKGLEWVSWIDQEGVFTYYADSVKGRFTISRDNSKNTLYLQMNSLRAEDTAVYYCAKDFSAAVMLRTSFDYWGQGTLVTVSS
4 | – | 0.005 | – | TAR2h-15 (other, anti-human TNFR1 dAb) EVRLLESGGGLVQPGGSLRLSCAASGFTFGKYTMTWVRQAPGKGLEWVSHISDDGNSTYYADSVKGRFTISRDNSKNTLYLQMNSLRAEDTAVYYCAKVPILAPRNLFDYWGQGTLVTVSS
5 | 0.05 | 0.03 | – | TAR2h-10 (other, anti-human TNFR1 dAb; tied to the entry under the name TAR2-10; also called TAR2-10) EVQLLESGGGLVQPGGSLRLSCAASGFTFEWYWMGWVRQAPGKGLEWVSAISGSGGSTYYADSVKGRFTISRDNSKNTLYLQMNSLRAEDTAVYYCAKVKLGGGPNFDYWGQGTLVTVSS
6 | 0.02 | – | – | TAR2h-10-55 (other) EVQLLESGGGLVQPGGSLRLSCAASGFPFEWYWMGWVRQAPGKGLEWVSAISGSGDSTYYADSVKGRFTISRDNSKNTLYQQMNSLRAEDAAVYYCAKVKLGGGPNFGYRGQGTLVTVSS
7 | 0.03 | – | – | TAR2h-10-7 (other) EVQLLESGGGLVQPGGSLRLSCAASGFTFEWYWMGWVRQAPGKGLEWVSAISGSGGSTYYADSVKGRFTISRDNSKNTLYLQMNSLRAKDTAVYYCAKVKLGGGPNFDYRGQGTLVTVSS
8 | – | 0.008 | – | TAR2h-10-4 (other, anti-human TNFR1 dAb) EVQLLESGGGLVQPGGSLRLSCAASGFTFEWYWMGWIRQAPGKGLEWVSAISGSGGSTYYADSVKGRFTISRDNSKNTLYLQMNSLRAEDTAVYYCAKVKLGGGPNFDYWGQGTLVTVSS
9 | – | 0.011 | – | TAR2h-10-3 (other, anti-human TNFR1 dAb) EVQLLESGGGLVQPGGSLRLTCAASGFTFEWYWMGWVRQAPGKGLEWVSAISGSGGSTYYADSVKGRFTISRDNSKNTLYLQMNSLRAEDTAVYYCAKVKLGGGPNFDYWGQGTLVTVSS
10 | – | 0.01 | – | TAR2h-10-1 (other, anti-human TNFR1 dAb) EVQLLESGGGLVQPGGSLRLSCAASGFTFEWYWMGWVRQAPGKGLEWVSAISGSGGSTYYADSVKGRFTISRDNSKNTLYLQMNNLRAEDTAVYYCAKVKLGGGPNFDYRGQGTLVTVSS
11 | 0.2 | 0.03 | – | TAR2h-16 (other, anti-human TNFR1 dAb) EVQLLESGGGLVQPGGSLRLSCAASGFTFGNYDMQWVRQAPGKGLEWVSSIDGTGGTTYYADSVKGRFTISRDNSKNTLYLQMNSLRAEDTAVYYCAQETNAFDYWGQGTLVTVSS
12 | – | – | 0.4 | TAR2m-21 (other) EVQLLESGGGLVQPGGSLRLSCAASGFTFTRYSMGWVRQAPGKGLEWVSRIDSYGRGTYYADSVKGRFTISRDNSKNTLYLQMNSLRAEDTAVYYCAKISQFGSNAFDYWGQGTLVTVSS
13 | – | – | 0.001 | TAR2m-21-23 (other) VH: EVQLLESGGGLVQPGGSLRLSCAASGFTFNRYSMGWLRQAPGKGLEWVSRIDSYGRGTYYEDPVKGRFSISRDNSKNTLYLQMNSLRAEDTAVYYCAKISQFGSNAFDYWGQGTQVTVSS
14 | – | – | 0.01 | TAR2m-21-07 (other) EVQLLESGGGLVQPGGSLRLSCAASGFTFSRCSMGWLRQAPGKGLEWVSRIDSYGRGTYYADSVKGRFTISRDNSKNTLYLQMNSLRAEDTAVYYCAKISKFGSNAFDYWGQGTLVTVSS
15 | 0.1 | – | – | TAR2h-12 (other) EVQLLESGGGLVQPGGSLRLSCAASGFTFVAYNMGWVRQAPGKGLEWVSFIDMYGAKTYYADSVKGRFTISRDNSKNTLYLQMNSLRAEDTAVYYCAKLCLMDCSGDIFDYWGQGTLVTVSS
16 | 0.3 | – | – | TAR2h-67 (other) EVQLLESGGGLVQPGGSLRLSCAASGFTFEDYPMAWVRQAPGKGLEWVSFIGLKGIHTYYADSVKGRFTISRDNSKNTLYLQMNSLRAEDTAVYYCAKDLNNFDYWGQGTLVTVSS
17 | – | 0.1 | – | TAR2h-17 (other, anti-human TNFR1 dAb) EVQLLESGGGLVQPGGSLRLSCAASGFTFGGYQMGWVRQAPGKGLEWVSFIDFTGAHTYYADSVKGRFTISRDNSKNTLYLQMNSLRAEDTAVYYCAKLSDDLTLPERFPFDYWGQGTLVTVSS
18 | 0.3 | 0.03 | – | TAR2h-14 (other, anti-human TNFR1 dAb) EVQLLESGGGLVQPGGSLRLSCAASGFTFDQYDMSWVRQAPGKGLEWVSLIDPSGGHTYYADSVKGRFTISRNNSKNTLYLQMNSLRAEDTAVYYCAKPVFSDWPAVEFDYWGQGTLVTVSS
19 | – | 0.3 | – | TAR2h-34 (other, anti-human TNFR1 dAb) EVQLLESGGGLVQPGGSLRLSCAASGFTFPEYGMAWVRQAPGKGLEWVSTISHGGEHTYYADSVKGRFTISRDNSKNTLYLQMNSLRAEDTAVYYCAQHPVSHPKFDYWGQGTLVTVSS
20 | 0.01 | 0.015 | – | TAR2h-42 (other, anti-human TNFR1 dAb) EVQLLESGGGLVQPGGSLRLSCAASGFTFAKYNMYWVRQAPGKGLEWVSAISPKGQHTYYADSVKGRFTISRDNSKNTLYLQMNSLRAEDTAVYYCAEGMGSDAITFDYWGQGTLVTVSS
21 | 0.3 | 0.01 | – | TAR2h-44 (other, anti-human TNFR1 dAb) EVQLLESGGGLVQPGGSLRLSCAASGFTFLQYPMVWVRQAPGKGLEWVSSILAPGGPTYYADSVKGRFTISRDNSKNSLYLQMNSLRAEDTAVYYCAKHPTHTPHPNFDYWGQGTLVTVSS
22 | 0.8 | – | – | TAR2h-35 (other) EVQLLESGGGLVQPGGSLRLSCAASGFTFDAYNMFWVRQAPGKGLEWVSAISPSGRETYYADSVKGRFTISRDNSKNTLYLQMNSLRAEDTAVYYCAKRYPDFDYWGQGTLVTVSS
23 | – | 0.008 | – | TAR2h-47 (other, anti-human TNFR1 dAb) EVQLLESGGGLVQPGGSLRLSCAASGFTFPVYNMAWVRQAPGKGLEWVSFIAGNGQQTYYADSVKGRFTISRDNSKNTLYLQMNSLRAEDTAVYYCAKFASKVSPMSLTDFDYWGQGTLVTVSS
24 | – | 0.08 | – | TAR2h-51 (other, anti-human TNFR1 dAb) EVQLLESGGGLVQPGGSLRLSCAASGFTFATYNMSWVRQAPGKGLEWVSAIDAGGMHTYYADSVKGRFTISRDNSKNTLYLQMNSLRAEDTAVYYCAKGTEPFDYWGQGTLVTVSS
25 | 0.03 | 0.008 | – | TAR2h-41 (other, anti-human TNFR1 dAb) EVQLLESGGGLVQPGGSLRLSCAASGFTFDKYQMGWVRQAPGKGLEWVSFIDSNGHHTYYADSVKGRFTISRDNSKNTLYLQMNSLRAEDTAVYYCAELDNLSITPFDYWGQGTLVTVSS
26 | – | 0.2 | – | TAR2h-22 (other, anti-human TNFR1 dAb) EVQLLESGGGLVQPGGSLRLSCAASGFTFGEYNMAWVRQAPGKGQEWVSFISTGGHVTYYADSVKGRFTISRDNSKNTLYLQMNSLRAEDTAVYYCAKFSVRFRSSIFDYWGQGTLVTVSS
27 | 3 | 0.03 | – | TAR2h-27 (other, anti-human TNFR1 dAb) EVQLLESGGGLVQPGGSLRLSCAASGFTFTDYNMAWVRQAPGKGLEWVSFISQEGHHTYYADSVKGRFTISRDNSKNTLYLQMNSLRAEDTAVYYCAKFSTIATLSLFDYWGQGTLVTVSS
